Results: patent publication US20120263734A1 (THERACLONE SCIENCES, published 2012)

These binders were tested against GPCMV gB (glycoprotein B of Guinea Pig CMV strain V545/82) (guinea pig CMV (GPCMV)) (assay: cell-based or functional assay).

Binder | neutralization of GPCMV V545/82 entry into JH4 cells (highest concentration tested, no effect)
2N9 human anti-CMV antibody (antibody, V domains shown) VH: QVQLVESGGGVVQPGRSLRLSCAASGFTFSSNGIHWVRQAPGKGLDWVAVISSDANDKQYADSVKGRFTISRDNSKNMVYLQMNSLRVEDTAVYFCARDGTCSGGNCYSGLIDYWGRGILVTVSS VL: EIVLTQSPATLSLSPGERATLSCRASQSVGGYLAWYQQKPGQAPRLLIYDASIRATGIPARFSGSGSGTDFTLTISSLEPEDFAVYYCHQRSNWPPLTFGGGTKVDIKR | > 300 µg/mL
2F10 human anti-CMV antibody (antibody, V domains shown) VH: QVHLVESGGGVVQPGRALRLSCAATGFTFSNHGIHWVRQAPGKGLEWLAVISSDGDDDRYADSVKGRFSVSRDNSKNTVHLQMNGLRPDDTAIYFCARDGRCGEPKCYSGLPDYWGRGTLVTVSS VL: EIVLTQSPATLSLSPGDRATLSCRASQSVGGYLAWYQQKPGQAPRLLLYDASNRATGIPARFSGSGSGTDFTLTISSLEPEDFALYYCLQRNTWPPLTFGGGTKVEIKR | > 300 µg/mL
5P9 human anti-CMV antibody (antibody, V domains shown) VH: QVQLVESGGGVIQPGRSLRLSCVASKFIFSNHGIHWVRQAPGKGLEWVAVISKDGTNAHYADSVRGRFSISRDNSKDTVFLEMRSLRPEDTAVYYCAREGRCIEEKCYSGQIDYWGQGSLVTVSS VL: EILLTQSPATLSLSPGERATLSCRASQSVGRYMAWYQQRPGQAPRLLIYDASIRATGIPARFSGSGSGTDFTLTISSLQTEDFAIYYCQQRSSWPPLTFGGGTKVEIKR | > 300 µg/mL
4P12 human anti-CMV antibody (antibody, V domains shown) VH: QVQLVESGGGVIQPGRSLRLSCVASKFIFSNHGIHWVRQAPGKGLEWVAVISKDGTNAHYADSVRGRFSISRDNSKDTVFLEMRSLRPEDTAVYYCAREGRCIEENCYSGQIDYWGQGSLVTVSS VL: EILLTQSPATLSLSPGERATLSCRASQSVGRYMAWYQQRPGQAPRLLIYDASIRATGIPARFSGSGSGTDFTLTISSLQPEDFAIYYCQQRSSWPPLTFGGGTKVEIKR | > 300 µg/mL
